According to the supplement of paper PMC9170038:

Test system: MS2 coat protein
Assay: apparent KD of MS2 coat protein; designed switch direction (-1 OFF switch, 1 ON switch): -1; higher = weaker reporter binding
Outline: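 Stalled E. coli RNA polymerase transcribed designed RNA switches on Illumina chips, which were then titrated with SNAP-549-labelled MS2 coat protein, doubling from 0.7 or 1.5 nM to 3 µM. Steps lasted from 0.8–1.5 h at the lowest concentration to 10–20 min at the highest. The apparent KD is each design's median over clusters of curve-fitted normalised fluorescence.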

[1] = Eterna round: R95, input ligand: FMN 200 uM
[2] = Eterna round: R95, input ligand: microRNA oligo, concentration not stated
[3] = Eterna round: R95, input ligand: none
[4] = input ligand: microRNA oligo, concentration not stated

Sequence	apparent KD of MS2 coat protein [1] [nM]	apparent KD of MS2 coat protein [2] [nM]	apparent KD of MS2 coat protein [3] [nM]	apparent KD of MS2 coat protein (input ligand: FMN 200 uM) [nM]	apparent KD of MS2 coat protein (input ligand: none) [nM]	apparent KD of MS2 coat protein [4] [nM]
CAGUACUGCAGGCUUAGGGACAUGAGGAUCACCCAUGUUCGUCUUAUUGAUCUAGGUACGCUGACGUACCUAGAUCU [JL-sv1-2.15 Brourd mod] (puzzle: Sensor v3, turn-off variant 1)	16.9	19	18.1			
GGUAUACAUGAGGAUCACCCAUGUCAGGAUAUGUAUGCAUAUGCCGAAAGGCAUAUGCUCAGAAGGGACUAUAU [AK-MS2ROC-r4-exclusion1-4.0] (Eterna round: R97, puzzle: Exclusion 1)				42.4	32	
UCCACGUAAGGAUAUGGUCAUUGUGACUUGAGGAUCACCCAAGUUGUGAGCUUCCGUCACCCAGAAGGUGCAUGGU [Oratin] (Eterna round: R97, puzzle: Exclusion 5)				216	99.9	
UUAUUACAAGCAAGAUCCCACAUGAGGAUCACCCAUGUGCUCGUCUUAUAAGGUACAGUGACGAAAGUCACAGUACC [Sensor 3, v1 - 0] (Eterna round: R96, puzzle: Sensor v3, turn-off variant 1)				23.1	25.9	369
GUCGAGUGAGGAUAUGGUGAGUAGUGCCUGAGCGCUGCUCACCAGAAGGCACAUGAGGAUCACCCAUGUAUGAC [Mat - Exclusion 4 - Mod of JL - D12] (puzzle: Exclusion 4)		17.8				
GUUCGACAUGAGGAUCACCCAUGUGAGGAUAUACGAUUAGCUGCUAGGUAGUUAGUAUGUAGAAGGUGCAUGAA [EX1 #73] (Eterna round: R97, puzzle: Exclusion 1)				55.2	41.7	
AGCUGUGGCCGAGGAUAUGACAUGAGGAUCACCCAUGUACAUGAUUAGGCCUGGUAACAGGCUCGUCAGAAGGCGGUCUCAGCA [Eli eng2 - 009] (Eterna round: R96, puzzle: Exclusion NG 2)				46.2	15.9	13.6
AGAAUGGUACAGGAUAUAGCAUCUAACUGCAUGCUAGAAGGGUAUACAUGAGGAUCACCCAUGUAGUCGUGGAU [Eternabot (L1) Solution 13] (Eterna round: R97, puzzle: Exclusion 6)				55.2	37.4	
GUACCCAAAGGAUAUACUUGAGGAUCACCCAAGUAUGUCGCUUGGGCACGGUAAAGGAGUAGAAGGUUGGGAAG [Aedti] (Eterna round: R97, puzzle: Exclusion 3)				12.5	11.8	
UAGAAAGGUAAGGAUAUCCAUGUGAAAUAAAGAGGAGAAGGUACCACAUGAGGAUCACCCAUGUGGCUCUCAAA [jl-ex6-4.54 Nando mod] (Eterna round: R97, puzzle: Exclusion 6)				13.8	14.7	
AAGAAACAUGAGGAUCACCCAUGUGAGGAUAUGUAAAAUAAAAGAAAAGAAAGAAGAAACAGAAGGCACAAAGG [Mat - Mod of Hog D13] (puzzle: Exclusion 1)	47.3	35.4	47.5			
CGGUGCUCGUGGAAACAUGAGGAUCACCCAUGUUGAGUUAGCGAGGAUAUCGGUAACACAUAUCACGAGAAGGCGCGAACCAGA [Ex NG3 #31] (Eterna round: R96, puzzle: Exclusion NG 3)				23.3	16	11.9
UAGAUACAUGAGGAUCACCCAUGUGAGGAUAUGAGAAUGAAAUGAAAUGAAUGAAGAAUCAGAAGGCACAAAGG [JL-ex1-4.31 salish99 mod] (Eterna round: R97, puzzle: Exclusion 1)				238	54	
AACCUGAGGCAUAGCUUUAGGUUUACAUGAGGAUCACCCAUGUAGGAUAUGGUAGGCAUAGCUUACCAGAAGGACAUGAAAAUU [Mat - Exclusion NG 3 - Mod of JL - D30] (Eterna round: R96, puzzle: Exclusion NG 3)				417	55.6	47.9
CUUUCGUCUGUGGGUGGUGACAUGAGGAUCACCCAUGUUUUGCUCGUCUUGUGCCGGGCCCGGCGCCCGGGCCCGGC [-38.7, -62.6, A 8%] (Eterna round: R97, puzzle: Sensor, turn-off variant 1)				861	992	
GAUUGAGAGCAGGAUAUCUUAGAAAUGUAUGAAAGAGAAGGGCUCACAUGAGGAUCACCCAUGUGGUCCUAGAU [JL Dibiri mod 17] (Eterna round: R96, puzzle: Exclusion 6)				162	25.4	17.9
GUGGGUCCUCACGGUGCUACAUGAGGAUCACCCAUGUGGAUUGAGGAUAUCGUAACCCGACGGGACGAGAAGGCAGUUUACUGU [Ex NG3 #99] (Eterna round: R96, puzzle: Exclusion NG 3)				66.2	27.2	14.8

Sequence	apparent KD of MS2 coat protein [1] [nM]	apparent KD of MS2 coat protein [2] [nM]	apparent KD of MS2 coat protein [3] [nM]	apparent KD of MS2 coat protein (input ligand: FMN 200 uM) [nM]	apparent KD of MS2 coat protein (input ligand: none) [nM]	apparent KD of MS2 coat protein [4] [nM]
AUUUUGUGAGGAUAUUAGAAGUAGAAAGUUGGUAGUAUUGCUGAGAAGGCACAUGAGGAUCACCCAUGUACAAC [JR_Ex4_Sub036] (Eterna round: R97, puzzle: Exclusion 4)				17.6	16.7	
AGUUCUAACACGAAAGUGUUAGUACAAUAAGCUUGUGAAACAUGAGGAUCACCCAUGUCCUCAUAAGCUCGUCUUAU [salish99_TOv2_r3_013] (puzzle: Sensor v3, turn-off variant 2)	15.4	667	14.7			
AUUUUGUGAGGAUAUGGUAACGUUUACAUGAGGAUCACCCAUGUUUCAUGGGACUAGAGACUAGAAGGCACUAACG [JR_Ex5_Sub028] (Eterna round: R97, puzzle: Exclusion 5)				251	279	
AGUACUAUGCGAGCUGACUUGCGUAGUGCAGCAGGUGGAACAUGAGGAUCACCCAUGUCCUCAUUUGCUCGUCUUAU [Mat - Sensor v3 - Turn-off var 2 - D4] (puzzle: Sensor v3, turn-off variant 2)	30.2	120	26.8			
GUUUAGUGAGGAUAUAAGGCUUCGAUCGAGCGCGGUCUGCUACAGAAGGCACAUGAGGAUCACCCAUGUUUCUC [salish99_ex4_r4_311] (Eterna round: R97, puzzle: Exclusion 4)				29.2	34.4	
UAUUAGCAAGCGAGAUCCCACAUGAGGAUCACCCAUGUGCUCGUCUUAUAAAAGACUGUGACGAGAGUCACGGUCAC [Mat - Sensor, turn-off var - Eli Mod - D23] (Eterna round: R97, puzzle: Sensor, turn-off variant 1)				13.7	12	
ACUAGAUGAGGAUAUGCAUGUUUUCAUGUUCUUCUAGAUUAACAUGAGGAUCACCCAUGUAGAAGGCGUCUUAU [Exclusion 2 - 30] (puzzle: Exclusion 2)		18.4				
AAUCUGCCGUAGGAUAUCUGAAGUUUAUAUAUAAGAGAAGGACGGACAUGAGGAUCACCCAUGUACGAUCCUGC [EX6 B.24] (Eterna round: R97, puzzle: Exclusion 6)				19.9	11.5	
CCCUCACUUGAGGAUCACCCAAGUCAGGAUAUCUCACCCGUCCUGCAAGACGGGUCACAGAGAAGGGACUAAAA [Araatra] (Eterna round: R97, puzzle: Exclusion 1)				69	21.9	
GAGGGACAUGAGGAUCACCCAUGUGAGGAUAUGUAAGAGAGAAGAGAGAGGAUAAGAAACAGAAGGCGCGGGAG [JR_Exclu1_Sub090] (puzzle: Exclusion 1)	33.9	44	77.1			
GAAAACGCAGAGGAUAUAUCAGAUCAAAGCUGCAUAGAAGGCUGCACAUGAGGAUCACCCAUGUGGUCUUUAAU [Mat - Exclusion 6 - JL Mod - D1] (Eterna round: R97, puzzle: Exclusion 6)				237	24	
AUUGUUUGAUACCUCUAAUACAUGAGGAUCACCCAUGUUAUCGAGGAUAUGCAGAAUAGAUUAGAGCAGAAGGCGAAGUAAUAU [JR_ExcNG3_Sub026] (Eterna round: R96, puzzle: Exclusion NG 3)				31.1	15.6	13.3
GACUUCUCUGAGGAUAUUGCAUCAUACGAUAAAUAAGAAGGCAGAACAUGAGGAUCACCCAUGUGGGUUUCAAG [Bingo-Bango-34] (Eterna round: R97, puzzle: Exclusion 6)				170	81.4	
GAGAAGGUAGGAUAUACGAAGAAAGAGGGUAGGAAUAAGACACAUGAGGAUCACCCAUGUAGAAGGACCAAGAG [Mat - Exclusion 2 - Mod of my Tesla design - D49] (puzzle: Exclusion 2)	32.4	21.2	22.9			
CUGGUGUGAGGAUAUCAGGACACGCCCGCGGACGUGUCAAAUGAGAAGGCACAUGAGGAUCACCCAUGUGGGAC [Onzausin] (puzzle: Exclusion 4)		31.7				
CUAGUAUAUCAGGAUAUGAUUUUAUAUAGUGGAUCAGAAGGGAUAACAUGAGGAUCACCCAUGUUAAGGAGUGA [JR_Ex6_Sub041] (Eterna round: R97, puzzle: Exclusion 6)				129	49.9	
CAGUACUGAGGAUAUACAUGAGGAUCACCCAUGUGUUCCGGCUAGGAUACUAGCAAAGGUAGAAGGCAGUACUG [Mat - Exclusion 3 - Eli Mod - D22] (Eterna round: R97, puzzle: Exclusion 3)				458	35.4	
